According to IntAct's records for PubMed 19787799:

B1: Protein ERGIC-53 (Homo sapiens), P49257 (parent)
chain: MAGSRQRGLRARVRPLFCALLLSLGRFVRGDGVGGDPAVALPHRRFEYKYSFKGPHLVQSDGTVPFWAHAGNAIPSSDQIRVAPSLKSQRGSVWTKTKAAFENWEVEVTFRVTGRGRIGADGLAIWYAENQGLEGPVFGSADLWNGVGIFFDSFDNDGKKNNPAIVIIGNNGQIHYDHQNDGASQALASCQRDFRNKPYPVRAKITYYQNTLTVMINNGFTPDKNDYEFCAKVENMIIPAQGHFGISAATGGLADDHDVLSFLTFQLTEPGKEPPTPDKEISEKEKEKYQEEFEHFQQELDKKKEEFQKGHPDLQGQPAEEIFESVGDRELRQVFEGQNRIHLEIKQLNRQLDMILDEQRRYVSSLTEEISKRGAGMPGQHGQITQQELDTVVKTQHEILRQVNEMKNSMSETVRLVSGMQHPGSAGGVYETTQHFIDIKEHLHIVKRDIDNLVQRNMPSNEKPKCPELPPFPSCLSTVHFIIFVVVQTVLFIGYIMYRSQQEAAAKKFF
partner: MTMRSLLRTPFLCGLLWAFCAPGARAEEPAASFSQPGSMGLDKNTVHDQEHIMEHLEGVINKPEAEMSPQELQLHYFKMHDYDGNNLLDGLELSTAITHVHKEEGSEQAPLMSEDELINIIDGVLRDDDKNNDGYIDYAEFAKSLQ

Variants of: B1
Details: with mcfd2_human MCFD2, Q8NI22
In the case of MAGSRQRGLRARVRPLFCALLLSLGRFVRGDGVGGDPAVALPHRRFEYKYSFKGPHLVQSDGTVPFSAHAGNAIPSSDQIRVAPSLKSQRGSVWTKTKAAFENWEVEVTFRVTGRGRIGADGLAIWYAENQGLEGPVFGSADLWNGVGIFFDSFDNDGKKNNPAIVIIGNNGQIHYDHQNDGASQALASCQRDFRNKPYPVRAKITYYQNTLTVMINNGFTPDKNDYEFCAKVENMIIPAQGHFGISAATGGLADDHDVLSFLTFQLTEPGKEPPTPDKEISEKEKEKYQEEFEHFQQELDKKKEEFQKGHPDLQGQPAEEIFESVGDRELRQVFEGQNRIHLEIKQLNRQLDMILDEQRRYVSSLTEEISKRGAGMPGQHGQITQQELDTVVKTQHEILRQVNEMKNSMSETVRLVSGMQHPGSAGGVYETTQHFIDIKEHLHIVKRDIDNLVQRNMPSNEKPKCPELPPFPSCLSTVHFIIFVVVQTVLFIGYIMYRSQQEAAAKKFF [W67S], the “effect of a mutation on the interaction” value is reported as “disrupting interaction strength”.
